Assay results published in patent publication US20080138335A1 (Kyowa Kirin, published 2008).

B1: 4D11-G3[R435H] (antibody, V domains shown)
VH: QLQLQESGPGLLKPSETLSLTCTVSGGSISSPGYYGGWIRQPPGKGLEWIGSIYKSGSTYHNPSLKSRVTISVDTSKNQFSLKLSSVTAADTAVYYCTRPVVRYFGWFDPWGQGTLVTVSS
VL: AIQLTQSPSSLSASVGDRVTITCRASQGISSALAWYQQKPGKAPKLLIYDASNLESGVPSRFSGSGSGTDFTLTISSLQPEDFATYYCQQFNSYPTFGQGTKVEIK
notes: One-amino acid variant of 4D11-G3; also called IgG3[R435H]; N5KG3-R435H; not shown: human IgG3 heavy chain constant region, from vector N5KG3
B2: 341-G [2/2/1/2] (antibody)
heavy: QVQLQQSGPGLVKPSQTLSLTCAISGDSVSSNSATWNWIRQSPSRDLEWLGRTYYRSKWYRDYVGSVKSRIIINPDTSNNQFSLQLNSVTPEDTAIYYCTRAQWLGGDYPYYYSMDVWGQGTTVTVSS
VL: EIVLTQSPATLSLSPGERATLSCRASQSVSSYLAWYQQKPGQAPRLLIYDASNRATGIPARFSGSGSGTDFTLTISSLEPEDFAVYYCQQRSNTFGPGTKVDIK
notes: also called IgG[2/2/1/2]; N5KG2212; not shown: human IgG2 heavy chain constant region, CH1 and hinge domains (EU 118-237), from vector N5KG2; human IgG1 heavy chain constant region, CH2 domain (EU 238-340), from vector N5KG1 by way of N5KG2211; human IgG2 heavy chain constant region, CH3 domain (EU 341-446), from vector N5KG2
B3: 341-G [2/2/2/1] (antibody)
heavy: QVQLQQSGPGLVKPSQTLSLTCAISGDSVSSNSATWNWIRQSPSRDLEWLGRTYYRSKWYRDYVGSVKSRIIINPDTSNNQFSLQLNSVTPEDTAIYYCTRAQWLGGDYPYYYSMDVWGQGTTVTVSS
VL: EIVLTQSPATLSLSPGERATLSCRASQSVSSYLAWYQQKPGQAPRLLIYDASNRATGIPARFSGSGSGTDFTLTISSLEPEDFAVYYCQQRSNTFGPGTKVDIK
notes: also called IgG[2/2/2/1]; N5KG2221; not shown: human IgG2 heavy chain constant region, CH1, hinge and CH2 domains (EU 118-340), from vector N5KG2; human IgG1 heavy chain constant region, CH3 domain (EU 341-446), from vector N5KG1

Each binder was assayed against T1, CD40 expressed on Ramos [ATCC] cells (UniProt P25942 21-277, limits assumed) (assay: flow cytometry (FACS) on Ramos cells expressing CD40, R-PE anti-human antibody).
T1 construct: whole, on cells; Target of all flow cytometry and CD95 assays; endogenous CD40 on the Ramos cell line
T1 sequence (P25942 21-277 limits assumed): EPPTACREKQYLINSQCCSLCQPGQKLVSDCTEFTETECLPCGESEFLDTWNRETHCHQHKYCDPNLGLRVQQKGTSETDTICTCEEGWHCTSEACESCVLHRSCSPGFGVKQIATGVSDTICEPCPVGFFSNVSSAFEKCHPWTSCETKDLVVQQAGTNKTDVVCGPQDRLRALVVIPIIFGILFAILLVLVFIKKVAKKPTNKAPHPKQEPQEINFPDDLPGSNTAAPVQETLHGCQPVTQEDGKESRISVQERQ

Binding result, binds:
B1, B2, B3
